Data from patent US11224632B2 (priority 2016, dated 2022).
“Also recorded” adds a separate entry of the source. Where no end group is shown, it is not given here. [ ]: non-standard residue; d: D form.

Legend:
CaV2.2 channel = CaV2.2 channel (Homo sapiens, UniProt Q00975); type: cell-based
CaV1.2 channel = molecular target: T1, CaV1.2 channel (Oryctolagus cuniculus, UniProt P15381); assay: whole cell patch clamp of CaV1.2-mediated ion currents in tsA201 cells co-expressing CaV1.2 and CaVbeta2e; type: cell-based, rabbit; conditions: 150 nM peptide
T1 construct: The coding regions of the two different alpha1 pore-forming units (CaValpha1) of the voltage-dependent calcium channel were fused in frame; expressed in transfected cells; host or cells: tsA201 cells, transient co-transfection
T1 sequence (P15381 whole entry, the tested form may be a part): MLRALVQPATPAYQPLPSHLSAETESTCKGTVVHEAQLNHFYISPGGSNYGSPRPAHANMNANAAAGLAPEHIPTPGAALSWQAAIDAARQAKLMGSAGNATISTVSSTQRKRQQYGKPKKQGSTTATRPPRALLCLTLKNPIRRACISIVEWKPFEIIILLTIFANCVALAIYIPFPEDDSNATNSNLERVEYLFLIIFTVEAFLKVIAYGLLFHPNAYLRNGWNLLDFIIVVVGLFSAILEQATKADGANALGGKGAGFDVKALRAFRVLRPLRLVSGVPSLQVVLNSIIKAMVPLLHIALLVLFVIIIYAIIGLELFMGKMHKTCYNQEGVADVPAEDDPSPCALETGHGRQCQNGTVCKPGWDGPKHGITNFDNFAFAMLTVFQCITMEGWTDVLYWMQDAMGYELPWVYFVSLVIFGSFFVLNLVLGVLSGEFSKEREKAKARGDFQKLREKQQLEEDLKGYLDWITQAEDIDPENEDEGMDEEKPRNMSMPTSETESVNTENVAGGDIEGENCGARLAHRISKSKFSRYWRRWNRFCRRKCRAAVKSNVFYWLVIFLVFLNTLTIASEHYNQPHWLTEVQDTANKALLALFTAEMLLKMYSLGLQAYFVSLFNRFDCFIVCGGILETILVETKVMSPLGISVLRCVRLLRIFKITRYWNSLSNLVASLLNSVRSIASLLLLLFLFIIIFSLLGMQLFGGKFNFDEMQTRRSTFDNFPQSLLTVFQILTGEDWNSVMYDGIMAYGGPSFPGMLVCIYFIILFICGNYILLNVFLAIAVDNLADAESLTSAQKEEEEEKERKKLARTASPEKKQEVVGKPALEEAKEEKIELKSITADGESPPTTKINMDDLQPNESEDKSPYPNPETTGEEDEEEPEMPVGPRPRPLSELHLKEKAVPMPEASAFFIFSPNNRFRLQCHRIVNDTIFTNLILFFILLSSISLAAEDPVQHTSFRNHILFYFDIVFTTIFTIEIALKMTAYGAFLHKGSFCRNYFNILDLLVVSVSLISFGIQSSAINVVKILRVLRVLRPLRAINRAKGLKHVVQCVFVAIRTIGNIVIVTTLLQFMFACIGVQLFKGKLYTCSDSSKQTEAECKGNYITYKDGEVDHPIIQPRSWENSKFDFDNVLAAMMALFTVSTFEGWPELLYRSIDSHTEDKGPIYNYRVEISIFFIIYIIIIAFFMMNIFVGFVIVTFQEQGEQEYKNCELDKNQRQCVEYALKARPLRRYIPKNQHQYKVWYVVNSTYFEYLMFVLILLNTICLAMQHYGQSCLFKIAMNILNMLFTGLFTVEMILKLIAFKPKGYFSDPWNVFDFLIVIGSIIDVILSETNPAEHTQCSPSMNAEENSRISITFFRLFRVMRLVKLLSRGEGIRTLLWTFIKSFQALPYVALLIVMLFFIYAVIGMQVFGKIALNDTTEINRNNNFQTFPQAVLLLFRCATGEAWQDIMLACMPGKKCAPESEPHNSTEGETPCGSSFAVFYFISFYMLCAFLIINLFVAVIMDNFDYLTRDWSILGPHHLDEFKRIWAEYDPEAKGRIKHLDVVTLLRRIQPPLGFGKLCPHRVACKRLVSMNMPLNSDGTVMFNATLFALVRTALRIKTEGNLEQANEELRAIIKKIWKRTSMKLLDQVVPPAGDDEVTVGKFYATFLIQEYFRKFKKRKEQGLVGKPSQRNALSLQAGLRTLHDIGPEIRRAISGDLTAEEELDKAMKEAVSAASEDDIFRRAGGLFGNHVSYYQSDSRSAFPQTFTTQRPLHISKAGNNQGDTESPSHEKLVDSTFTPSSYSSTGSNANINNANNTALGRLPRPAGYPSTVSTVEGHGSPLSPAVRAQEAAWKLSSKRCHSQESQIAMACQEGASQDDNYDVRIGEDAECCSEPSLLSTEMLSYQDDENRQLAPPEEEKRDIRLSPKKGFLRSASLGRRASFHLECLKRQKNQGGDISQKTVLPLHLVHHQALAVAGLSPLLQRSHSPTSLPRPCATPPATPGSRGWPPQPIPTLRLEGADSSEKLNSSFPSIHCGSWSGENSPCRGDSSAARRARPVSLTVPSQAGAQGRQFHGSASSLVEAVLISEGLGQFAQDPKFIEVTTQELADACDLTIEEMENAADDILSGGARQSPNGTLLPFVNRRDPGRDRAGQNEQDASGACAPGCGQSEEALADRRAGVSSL
T1 sequence (Q8VGC3 1-611 isoform Q8VGC3-4 partner): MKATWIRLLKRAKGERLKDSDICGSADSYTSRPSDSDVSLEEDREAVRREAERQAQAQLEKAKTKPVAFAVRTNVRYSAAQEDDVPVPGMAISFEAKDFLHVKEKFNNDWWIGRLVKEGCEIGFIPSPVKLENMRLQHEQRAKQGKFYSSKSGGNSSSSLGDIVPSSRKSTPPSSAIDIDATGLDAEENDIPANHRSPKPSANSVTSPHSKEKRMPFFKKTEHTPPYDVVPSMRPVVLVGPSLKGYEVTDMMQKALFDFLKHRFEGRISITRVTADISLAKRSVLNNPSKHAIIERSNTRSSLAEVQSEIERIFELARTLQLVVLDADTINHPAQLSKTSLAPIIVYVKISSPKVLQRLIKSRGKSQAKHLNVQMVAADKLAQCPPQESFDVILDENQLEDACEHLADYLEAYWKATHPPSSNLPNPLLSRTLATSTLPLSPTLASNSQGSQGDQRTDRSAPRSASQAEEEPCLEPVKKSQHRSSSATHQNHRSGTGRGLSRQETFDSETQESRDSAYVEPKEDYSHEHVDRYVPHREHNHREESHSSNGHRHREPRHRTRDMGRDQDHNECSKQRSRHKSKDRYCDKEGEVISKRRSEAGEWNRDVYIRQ

Chain of CaV2.2 channel (Q00975 whole entry, looked up): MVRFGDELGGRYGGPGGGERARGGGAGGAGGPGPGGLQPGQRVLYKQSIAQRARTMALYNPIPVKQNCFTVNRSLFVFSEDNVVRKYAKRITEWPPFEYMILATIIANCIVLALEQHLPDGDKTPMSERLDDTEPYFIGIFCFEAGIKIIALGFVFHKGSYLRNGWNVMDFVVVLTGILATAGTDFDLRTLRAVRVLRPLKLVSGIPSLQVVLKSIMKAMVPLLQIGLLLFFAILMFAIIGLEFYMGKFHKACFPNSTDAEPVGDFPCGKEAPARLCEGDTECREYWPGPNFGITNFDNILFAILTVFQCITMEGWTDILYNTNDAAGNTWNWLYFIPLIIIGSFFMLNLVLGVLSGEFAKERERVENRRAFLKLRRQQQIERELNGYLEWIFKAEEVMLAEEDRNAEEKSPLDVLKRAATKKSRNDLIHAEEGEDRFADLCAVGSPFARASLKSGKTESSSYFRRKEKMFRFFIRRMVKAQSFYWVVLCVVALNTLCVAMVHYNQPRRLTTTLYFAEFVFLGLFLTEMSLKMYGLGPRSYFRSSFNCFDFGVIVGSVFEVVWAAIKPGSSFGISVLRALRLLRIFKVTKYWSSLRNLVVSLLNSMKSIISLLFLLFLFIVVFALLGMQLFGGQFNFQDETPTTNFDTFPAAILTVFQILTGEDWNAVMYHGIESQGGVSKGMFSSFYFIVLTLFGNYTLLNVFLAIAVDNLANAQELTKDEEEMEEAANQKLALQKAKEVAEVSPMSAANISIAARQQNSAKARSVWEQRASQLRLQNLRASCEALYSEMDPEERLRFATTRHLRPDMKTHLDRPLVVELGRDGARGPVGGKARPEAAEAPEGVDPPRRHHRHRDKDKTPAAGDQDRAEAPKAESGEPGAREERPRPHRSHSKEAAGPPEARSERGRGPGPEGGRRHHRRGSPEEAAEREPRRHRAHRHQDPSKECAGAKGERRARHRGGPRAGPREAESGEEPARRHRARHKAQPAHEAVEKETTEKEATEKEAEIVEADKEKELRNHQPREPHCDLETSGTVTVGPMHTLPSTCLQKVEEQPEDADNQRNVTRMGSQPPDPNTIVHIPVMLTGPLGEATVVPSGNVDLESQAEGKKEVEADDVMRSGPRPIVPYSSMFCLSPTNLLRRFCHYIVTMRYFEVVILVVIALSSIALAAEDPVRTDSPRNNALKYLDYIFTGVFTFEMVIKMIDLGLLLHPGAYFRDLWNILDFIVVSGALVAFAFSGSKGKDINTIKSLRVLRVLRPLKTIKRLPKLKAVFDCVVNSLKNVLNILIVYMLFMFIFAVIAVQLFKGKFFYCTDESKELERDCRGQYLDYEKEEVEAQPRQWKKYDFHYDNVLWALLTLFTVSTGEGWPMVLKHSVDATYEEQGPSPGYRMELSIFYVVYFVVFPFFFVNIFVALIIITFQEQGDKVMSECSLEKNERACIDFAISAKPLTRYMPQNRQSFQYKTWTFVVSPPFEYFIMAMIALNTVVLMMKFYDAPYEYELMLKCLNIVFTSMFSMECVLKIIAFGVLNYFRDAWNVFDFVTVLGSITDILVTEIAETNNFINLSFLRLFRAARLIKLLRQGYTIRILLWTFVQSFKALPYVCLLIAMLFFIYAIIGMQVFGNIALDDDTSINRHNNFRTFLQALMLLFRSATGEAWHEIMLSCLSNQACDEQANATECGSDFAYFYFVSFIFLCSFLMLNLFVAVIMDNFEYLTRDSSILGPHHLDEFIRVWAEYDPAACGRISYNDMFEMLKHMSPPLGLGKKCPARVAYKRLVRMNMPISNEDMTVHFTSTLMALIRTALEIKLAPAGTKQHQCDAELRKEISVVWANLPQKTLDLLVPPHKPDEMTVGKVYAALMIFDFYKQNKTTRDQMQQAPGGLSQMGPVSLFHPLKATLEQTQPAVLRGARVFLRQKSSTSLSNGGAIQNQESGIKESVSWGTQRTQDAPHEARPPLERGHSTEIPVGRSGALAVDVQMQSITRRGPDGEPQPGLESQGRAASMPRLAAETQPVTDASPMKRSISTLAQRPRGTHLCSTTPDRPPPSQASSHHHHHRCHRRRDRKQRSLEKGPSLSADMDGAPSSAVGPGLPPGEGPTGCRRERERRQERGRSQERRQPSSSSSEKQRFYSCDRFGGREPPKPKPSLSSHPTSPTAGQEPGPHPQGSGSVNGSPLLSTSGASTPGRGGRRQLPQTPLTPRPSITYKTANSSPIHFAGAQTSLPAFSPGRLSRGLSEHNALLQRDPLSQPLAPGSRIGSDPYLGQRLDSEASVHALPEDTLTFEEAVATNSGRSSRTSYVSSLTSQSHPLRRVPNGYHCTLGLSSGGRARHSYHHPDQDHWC

Substance | change in voltage-dependent activation of the CaV2.2 channel (activation curve) (CaV2.2 channel) | effect on CaV2.2-mediated ion current (CaV2.2 channel) | reduction in the ion current at all tested voltages (current-to-voltage plot) (CaV2.2 channel) | reversibility of inhibition of CaV2.2 current (CaV2.2 channel) | effect on CaV2.2-mediated ion currents (control blocker) (CaV2.2 channel) | voltage dependency of activation of the CaV1.2 channel (CaV1.2 channel) | effect on CaV1.2-mediated ion current (CaV1.2 channel; pulses -90 mV to +10 mV)
rprtrlhthrnr ([dR][dP][dR][dT][dR][dL][dH][dT][dH][dR][dN][dR]) [D3] | not accompanied by a change in voltage-dependent activation of the channel | significant reduction in the ion current; also recorded: blocks the CaV2.2 channel | up to 54% | reversible |  |  | 
omega-conotoxin [reference compound] |  |  |  |  | interrupted |  | 
ptlhthnrrrrr ([dP][dT][dL][dH][dT][dH][dN][dR][dR][dR][dR][dR]) [RD2] | not accompanied by a change in voltage-dependent activation of the channel | significant reduction in the ion current; also recorded: blocks the CaV2.2 channel | up to 55% |  |  | not affected | remained virtually unchanged; also recorded: insensitive
